Results on 30 sequences are retold here after the nanobody polyreactivity screen of Harvey et al. (2022).

The data set is described as follows: yeast display, Sf9 membrane polyspecificity reagent, FACS + sequencing; frameworks hold sequencing errors. Summed up: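 A synthetic nanobody library was expressed on Saccharomyces cerevisiae BJ5465 by galactose induction for 36–48 hours. The library was stained for 1 hour at 4 °C with 10% biotinylated, detergent-solubilized Sf9 membrane reagent and enriched with streptavidin microbeads before FACS. Low and high (top ~1%) gates were set on anti-HA fluorescence for expression and streptavidin fluorescence for reagent binding, and each polyreactivity label reflects the gate of origin.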
Regarding “QVQLVESGGGLVQAGGSLRLSCAASGFTISDNAMGWYRQAPGKERELVAAITSGTSTYYADSVKGRFTISRDNAKNTVYLQMNSLKPEDTAVYYCAARTYYSGYLWARGYWGQGTQVTVSS”, the “polyreactivity (PSR sort gate)” value was “high polyreactivity”.
As to “QVQLVESGGGLVQAGGSLRLSCAASGRTFRSYAMGWYRQAPGKEREFVAAISRSGASTRYADSVKGRFTISRDNAKNTVYLQMNSLKPEDTAVYYCAARYYPWKVNRFSYWYDYWGQGTQVTVSS”, the “polyreactivity (PSR sort gate)” value was “high polyreactivity”.
With “QVQLVESGGGLVQAGGSLRLSCAASGSIFEWYAMGWYRQAPGKERELVAAIDISGGDTYYADSVKGRFTISHDNAKNNVYLQRNSLKPEDTAVYYCAATRPASYAAYDYWGQGTQVTVSS”, the “polyreactivity (PSR sort gate)” value is “high polyreactivity”.
In the case of “QVQLQESDGGLVQAGGSLRLSCAASGNIFPTDRMGRYRQAPAKVLEFVATISHGGSTNYADSVKGRFTISRDNATNTVYLQMNSLKPEDTAVYYCAVWSLGRCRHYYWGQGTHVTVSS” it was “low polyreactivity”.
The entry for “QVQLVESGGGLVQAGGSLRLSCAASGSTFRYYAMGWYRQAPGKERELVAAISWSGGSTYYADSVKGRFTISRDNAKNTVYLQMNSLKPEDTEVYYCNKAWFPYYYYRFDYWGQGTQVTVSS” is “high polyreactivity”; for “QVQLVESGGGLVQAGGSLRISCAASGRTSHAYAMGWYRQAPGKERELVAAITRVTSTYYADSVKGRFTISRDNAKNTVYLQMNSLKPEDTAVYYCAAGKGYYRSDYWGQGTQVTVSS” it is “low polyreactivity”.
In the case of “QVQLVESGGGLVQAGGSLRLSCAASGRTFGSYAMGWYRQAPGKERELVAAISKGGGSTYYADSVKGRFTISRDNAKNTVYLQMNSLKPEDTAVYYCAKRRFDYYYYGGQGTQVTVSS” it was “high polyreactivity”.
Regarding “QVQLEESGGGLVQAGGSLRISCAASGFTFSHNAMGWYRQAPGKERELVAAISKGGSSTYYADSVKGRFTISRDNAKNTVYLQMNSLKPEDTAVYYCARPSPHKGYDYWGQGTQVTVSS”, the “polyreactivity (PSR sort gate)” value was “high polyreactivity”.
Consider “QVQLVESGGGLVQAGGSLRLSCAASGITFYRYAMGWYRQAPGKERELVAAISTSGGTTYYADSVKERFTISRDNAKNTVYLQMNSLKPEDTAVYYCAAQYLRWSRMDYWGQGTQVTVSS”, for which the “polyreactivity (PSR sort gate)” value was “high polyreactivity”.
The entry for “QVQLVESGGGLVQAGGSLRLSCAASGIIFGYNAMGWYRQAPGKERELVAAISTSGGSTYYADSVKGRFTISRDNAKNTVYLQMNSLKPEDTAVYYCAAGYRRTYGFNYWGQGTQVTVSS” is “low polyreactivity”; for “QVQLVESGGGLVQAGGSLRLSCAASGGTLYRNVMGWYRQAPGKERELVAAISKSGGSTYYADSVKGRFTISRDNAKNTFYLQMNSLKPEDTAVYYCDVSHNRGYDSWGQGTQVTVSS” it is “high polyreactivity”.
“QVQLVESGGGLVQAGGSLRLSCADSGSIFVAYAMRWYRPAPGKERELVAAISSSGGTTYYADSVKGRFTISRDNAKNTVYLQMNSLKPEDTAVYYSAARDYKYYYWGQGTQVTVSS”: the “polyreactivity (PSR sort gate)” value is “high polyreactivity”.
In the case of “QVQLVESGGGLVQAGGSLRLSCAASGSIYYRYAMGWYRQAPGKERELVAAISKRGGSTYYADSVKGRFTISRDNAKITVYLQMNRLKPEDTAVYYCAAEVSSFLYTPSYSTDDYWGQGTQVTVSS” it was “high polyreactivity”; in that of “QFQLVESGGGLVQARGSLRLSCAASGSTFSQYAMGWYRQAPGKERELVAAITTSDGTTNYADSVKGRFTISRDNAKNTVFLQMNILQPEDTAVYYCNNEYFYYSFGYWGQGTQVTVSS”, “low polyreactivity”; in that of “QVQLVESGGGLVQAGGSLRLSCAASGRTFVQYVMGRYRQAPGKERELVAAITSSGGSTYADSVKGRFTISRDNAKNTVYLQMNSLKPEDTAVYYSAADYLDGVGDVEHDYWGQGTQVTVSS”, “low polyreactivity”.
In the case of “QVQLVESGGGLVQAGGSLRLSCAASGRTFSVYAMVWYRQAPGKERELVADITRRGGSTTYADSVKGRFTISRDNAKNTVDLQMNSLKPEDTAVYYFNADGKAGGDYDYWGQGTQVTVSS” it was “low polyreactivity”; in that of “QVQLVESGGGLVQAGGSLRLSCAASGITLDVNAMGWYRQAPGKERELVADITWSDDTTYYADSVKGRFTISRDNAKNTVYLQMNSLKPEDTAVYYCAADVSVSFHPRGYDYWGQGTQVTVSS”, “low polyreactivity”.
The entry for “QVQLVESGGGLVQAGGSLRLSCAASGRTFGIYAMGWYRQAPGKEREFVAAISWSGTSTHYADSVKGRFTISRDNAKNTVYLQMNSLKPEDTAVYYCNADSRTYRYYWSYGYWGQGTQVTVSS” is “high polyreactivity”.
In the case of “QVQLVESGGGLVQAGGSLRLSCAASGSTFGYYDMGWYRQAPGKERELVATITKSGGTTRYADSVKGRFTISRDNAKNTVYLQMNSLKPEDTAVYYCAADGTWRLLDDYWGQGTQVTVSS”, the “polyreactivity (PSR sort gate)” value is “low polyreactivity”.
In the case of “QVKLVESGGGLVQAGGSLRLSCAASGSTSRDNAMGWYRQAPGKERELVGAITVIDGTTYYADSVKGRFTISRDNAKNTVYLQMNSLKPEDTAVYYCAADTIWYEYYYWGQGTQVTLSS” it was “low polyreactivity”; in that of “QVQLVESGGGLVQAGGSLRLSCAASGRIFYPYAMGWYRQAPGKERELVAAIDKGGGSTYYADSVKGRFTISRDNAKNTVYLQMNSLKPEVTAVYYCAAGWEYPYDYWGQGTQVTVSS”, “low polyreactivity”.
The entry for “QVQLVESGGGLVQAGGSLRLSCAASGFTFGRNAMGWYRQAPAKERELVAAISYDGTRTYYADSVKGRFTISRDKAKNTVYLQMNSLKPEDTAVYYGNAVWVRGFYRVYDYWGQGTQVTVSS” is “high polyreactivity”.
On to “QVQLVESGGGLVQAGGSLRLSCAASGFIFWFYAMGWYRQAPGKEREFVATISRGGSKNYADSVKGRFTISRDNAKNTVYFKINSLKAEDTEVYYCAAARSSYWKTIRAFTMDYWGQGTQVTVSS”, for which the “polyreactivity (PSR sort gate)” value is recorded as “high polyreactivity”.
The entry for “QVQLVESGGGLVQAGGSLRLSCAASGSIFTAYAMGWYRPAPGKERELVAAITSGGSTNYADSVKGRFTISRDNAKNTVYLQMNSLKPEDTAVYYCNADDYWLDSWSSVLWYDYWGQGTQVTVSS” is “low polyreactivity”.
In the case of “QVQLVESGGGLVQAGGSLRLSCAASGRIFDYYDMGWYRQAPGKERELVAAISNGGSTYYADSVKGRFTISRDNAKNTVYLQMNCLKPEDTAVYYCNNRWYYQYGQSHVRWYDYWGQGTQVTVSS” it was “high polyreactivity”; in that of “QVQLVESGGGLVQAGGSLRLSCAASGSTFDTYAMGWYRQAPGKERELVAAISVSGTSTSYADSVKGRFTISRDNAKNTVYLQMNSLKPEDTAVYYCNATDFSRNPGYARPEYDYWGQGTQVTVSS”, “low polyreactivity”.
The entry for “QVQLVESGGGLVQAGGSLRLSCAASGRTFIRYAMGWYRQAPGKERELVAAISSRGGRTHYADSVKGRFTISRDNAKNTVYLQMNSLKPEDTAVYYCAADLTYVTVPGASYDYWGQGTQVTVSS” is “low polyreactivity”.
Consider “QVQLVESGGGLVQAGGSLRLSCAASGSIFTWYAMGWYRQAPGKERELVAAITTGGDTYYADSVKGRFTISRDNAKNTVYLQMNSLKPEDTAVYYCAATPTYWYLCSPYDYWGQGTQVTVSS”, for which the “polyreactivity (PSR sort gate)” value is listed as “low polyreactivity”.
In the case of “QVQLVESGGGLVQAGGSLRLSCAASGSTFHYYAMGWYRQAPGKERELVAAISQSGSGTYYADSVKGRFTISRDNAKNTVYLLMNSLKPEDTAVYYCAKDITGLSRYRRDYWGQGTQVTVSS” it was “low polyreactivity”.
On to “QVQLVESGGGLVPAGGSLRLSCAASGFTFSYYAMGWYRQAPGKERELVAAISWSGGRTYYADSVKGRFTISRDNAKNTVYLEMNRLKPEDTAVYYCAVVYYGSIFVLEYDYWGQGTQVTVSS”, for which the “polyreactivity (PSR sort gate)” value is given as “high polyreactivity”.
